Positions count from the first letter of the chain named. Names may count otherwise. “Also recorded” adds a separate entry of the source.
Legend:
[1] = target: T1, CaSR (wildtype) (Homo sapiens, UniProt P41180); assay: Epifluorescence imaging of CaSR mediated ER Ca^2+ dynamics using R-CatchER and Fura-2 in HEK293 cells; type: cell-based; details: for effect on cytosolic and ER Ca^2+ oscillations: Tg 3 μM, 2-APB 100 μM, ionomycin 20 μM with 10 mM Ca^2+; for effect on frequency of ER Ca^2+ oscillations: in the presence of Ca^2+, HEK293 CaSR
T1 construct: expressed in transfected cells; host or cells: HEK293
T1 sequence (P41180 20-1078): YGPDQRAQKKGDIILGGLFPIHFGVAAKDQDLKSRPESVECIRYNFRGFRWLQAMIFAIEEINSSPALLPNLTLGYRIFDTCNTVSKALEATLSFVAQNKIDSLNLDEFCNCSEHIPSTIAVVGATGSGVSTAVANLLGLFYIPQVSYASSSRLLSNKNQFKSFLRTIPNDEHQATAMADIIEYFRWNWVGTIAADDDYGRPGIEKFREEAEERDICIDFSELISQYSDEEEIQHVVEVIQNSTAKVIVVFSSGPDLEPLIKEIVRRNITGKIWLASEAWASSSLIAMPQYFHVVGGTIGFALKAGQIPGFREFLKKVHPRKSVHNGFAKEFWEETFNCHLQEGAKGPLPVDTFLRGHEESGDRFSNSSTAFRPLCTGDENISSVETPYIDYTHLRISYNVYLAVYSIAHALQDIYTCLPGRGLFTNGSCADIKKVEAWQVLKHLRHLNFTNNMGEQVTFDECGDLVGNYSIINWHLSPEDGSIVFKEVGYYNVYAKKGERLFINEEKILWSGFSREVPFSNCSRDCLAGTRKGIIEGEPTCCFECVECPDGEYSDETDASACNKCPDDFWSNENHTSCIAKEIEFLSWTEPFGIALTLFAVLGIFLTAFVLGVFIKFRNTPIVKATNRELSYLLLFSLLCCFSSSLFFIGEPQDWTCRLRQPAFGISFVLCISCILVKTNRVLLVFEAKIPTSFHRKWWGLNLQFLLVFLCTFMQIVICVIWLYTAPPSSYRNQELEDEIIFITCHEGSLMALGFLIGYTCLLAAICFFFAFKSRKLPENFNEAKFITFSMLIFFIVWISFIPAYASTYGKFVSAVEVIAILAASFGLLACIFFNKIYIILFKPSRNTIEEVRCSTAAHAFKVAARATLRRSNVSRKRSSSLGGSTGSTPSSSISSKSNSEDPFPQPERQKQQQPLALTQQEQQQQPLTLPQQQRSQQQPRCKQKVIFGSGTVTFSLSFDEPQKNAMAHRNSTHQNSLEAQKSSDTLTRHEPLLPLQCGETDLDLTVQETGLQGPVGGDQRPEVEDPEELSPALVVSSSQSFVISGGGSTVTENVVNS
Method: Cell culture and transfection. C2C12, HEK293 and HeLa cells were cultured and maintained in Dulbecco's modified Eagle's medium (DMEM) supplemented with 10% fetal bovine serum (FBS) and high glucose (4.5 g/L) at 37° C. R-CatchER, G-CatchER2, G-CEPIA1er, R-CEPIA1er or R-CatchER with GFP-CaSR (wt and mutations) were transfected into cells using Lipofectamine 3000 (Life Technologies), following the manufacturer's instructions. Seed cells onto sterilized 22 mm×40 mm glass microscope slides in 6 cm dishes until about 70% confluency, the day of transfection. The next day, 2 μg of plasmid were mixed with transfection reagent in the reduced serum media Opti-MEM for 4-6 h at 37° C. The media was then replaced with 3 mL of fresh DMEM and incubated at 37° C. for 48 h.
Epifluorescence imaging of class C GPCR mediated ER Ca^2+ dynamics using R-CatchER and Fura-2. HEK293 Cells transfected with R-CatchER and GFP-CaSR (wt and mutations) were incubated with Fura-2 for 30 mins at 37° C. then washed with 2 mL of physiological Ringer buffer (10 mM HEPES, 140 mM NaCl, 5 mM KCl, 1.2 mM MgCl2, 1.8 mM CaCl2) at pH 7.4). The coverslips were mounted on a bath chamber and placed on the stage of a Leica DM6100B inverted microscope with a Hamamatsu cooled EM-CCD camera and illuminated with a Till Polychrome V Xenon lamp. Cells were illuminated at 340 nm, 380 nm and 569 nm, in real-time, as cells were exposed to different concentrations of Ca^2+, cinacalcet, Phe, TNCA, or NPS2143.

[2] = Calcium (Ca^2+) binding assay: fluorescence/absorbance titration of purified protein; details: for Aholo/Aapo: absorbance at 569
Method: Calcium (Ca^2+) binding assay. 10 μM protein samples of mApple, EGFP, and mCherry variants were titrated with different concentrations of Ca^2+. Data were fitted with a 1:1 binding equation. Fluorescence intensities were collected using a Spectrofluorimeter (Photon Technology International, Inc.) and the absorbance values of Ca^2+-free and Ca^2+-loaded forms were determined using a Shimadzu UV-1601 spectrophotome.
Ca^2+ binding assay. Fluorescence measurements of mApple variants with increasing Ca^2+ concentrations were done in order to obtain the affinity of the sensor for Ca^2+ in vitro. Samples of 10 μM mApple variants with 5 μM EGTA were prepared in triplicate in 1 mL volumes in 10 mM Tris, pH 7.4. The samples were placed in quartz fluorescence cuvettes, and metal ion was titrated into each sample, in a stepwise manner, using 0.1 M and 1 M metal stock solutions. The fluorescence response of the indicator to increasing Ca^2+ concentrations was monitored using a fluorescence spectrophotometer (Photon Technology International, Canada) with the Felix32 fluorescence analysis software. The absorbance spectra before and after titration were obtained using a Shimadzu UV-1601 spectrophotometer.

[3] = pKa determination of the chromophore; type: physicochemical
Method: pKa determination. To measure the chromophore pKa of mApple, EGFP, and mCherry variants, the proteins were prepared in buffers (sodium acetate buffer for pH 3-5, MES buffer for pH 5-6, HEPES buffer for pH 6.5-8, TRIS buffer for pH 8.5-9) covering a pH range from 3 to 10. All samples were Incubated at 4° C. overnight, then the following day, the absorbance and fluorescence spectra were collected using a Shimadzu UV-1601 spectrophotometer and the Spectrofluorimeter.

[4] = Quantum yield, extinction coefficient, and brightness determination; type: physicochemical; design: key to Brightness: extinction coefficient × quantum yield
Method: Quantum yield, extinction coefficient, and brightness determination. The quantum yield values of all the variants were determined by measuring the emitted fluorescence intensities and absorbance intensities of the chromophore at different protein concentrations. The wildtype was used as a reference to calculate quantum yield. Brightness was defined as a visual perception in which a source appears to emit or reflect a given amount of light, which was obtained by multiplying the extinction coefficient and the quantum yield.

[5] = mCherry based indicators, Ca^2+ induced fluorescence change

NCCOB(c1ccccc1)c1ccccc1 [2-APB, 2-Aminoethoxydiphenyl borate]
effect on cytosolic and ER Ca^2+ oscillations [1]: eliminated; also recorded: elimination

C[C@@H](NCCCc1cccc(C(F)(F)F)c1)c1cccc2ccccc12 [Cinacalcet]
effect on frequency of ER Ca^2+ oscillations ([1]; R-CatchER): increased the frequency

N[C@@H](Cc1ccccc1)C(=O)O [L-Phe]
Ca^2+ release from the ER, area under the curve (AUC) ([1]; 5 mM L-Phe alone, R-CatchER): 19.54±1.08
effect on frequency of ER Ca^2+ oscillations ([1]; R-CatchER): increased the frequency
EC50 ([1]; in the presence of L-Phe, read out with R-CatchER, read-out: EC50 of ER Ca^2+ mobilization by extracellular Ca^2+): 2700 ± 100 µM

CC(C)(Cc1ccc2ccccc2c1)NC[C@@H](O)COc1cccc(Cl)c1C#N [NPS2143]
effect on frequency of ER Ca^2+ oscillations ([1]; R-CatchER): decreased the frequency

C/C=C(/C)C(=O)O[C@H]1C(C)=C2[C@H]([C@@H]1OC(=O)CCCCCCC)[C@@](C)(OC(C)=O)C[C@H](OC(=O)CCC)[C@@]1(O)[C@H]2OC(=O)[C@@]1(C)O [Tg, Thapsigargin]
effect on cytosolic and ER Ca^2+ oscillations [1]: eliminated; also recorded: elimination

C[C@H](CCC(=O)O)C[C@H](C)C[C@H](C)C(=O)/C=C(\O)[C@H](C)C[C@H](C)C/C=C/[C@@H](C)[C@@H](O)[C@@H](C)[C@@H](O)C[C@@H]1CC[C@@](C)([C@H]2CC[C@@](C)([C@@H](C)O)O2)O1 [ionomycin]
effect on cytosolic and ER Ca^2+ oscillations [1]: eliminated; also recorded: abolished

B1: mApple: red fluorescent scaffold protein, SEQ ID NO: 11 (protein)
chain: EENNMAIIKEFMRFKVHMEGSVNGHEFEIEGEGEGRPYEAFQTAKLKVTKGGPLPFAWDILSPQFMYGSKVYIKHPADIPDYFKLSFPEGFRWERVMNFEDGGIIHVNQDSSLQDGVFIYKVKLRGTNFPSDGPVMQKKTMGWEASEERMYPEDGALKSEIKKRLKLKDGGHYAAEVKTTYKAKKPVQLPGAYIVDIKLDIVSHNEDYTIVEQYERAEGRHSTGGMDELYK
Fmax/Fmin ([2]; EGFP and mApple variants): 1.02
Aholo/Aapo [2]: 1.07 (569)
pka ([3]; scaffold, no apo/holo stated): 6.26 ± 0.23
Brightness ([4]; scaffold, no apo/holo stated): 0.37 ± 0.01
Extinction coefficient ([4]; scaffold, no apo/holo stated): 75000 M⁻¹ cm⁻¹
Fluorescence quantum yield ([4]; scaffold, no apo/holo stated): 0.49 ± 0.01

B2: mApple A145E/K198E/R216E: mApple variant, SEQ ID NO: 30 (protein)
chain: B1 chain with A145E, K198E, R216E
Fmax/Fmin ([2]; EGFP and mApple variants): 2.15
Aholo/Aapo [2]: 1.04 (569)

B3: mApple K198D/R216D: mApple variant, SEQ ID NO: 24 (protein)
chain: B1 chain with K198D, R216D
Fmax/Fmin ([2]; EGFP and mApple variants): 2.48
Aholo/Aapo [2]: 2.21 (569)
pka ([3]; Apo): 7.04 ± 0.11
pka ([3]; Holo): 6.56 ± 0.11
Brightness ([4]; Apo): 0.15 ± 0.01
Extinction coefficient ([4]; Apo): 38000 M⁻¹ cm⁻¹
Fluorescence quantum yield ([4]; Apo): 0.40 ± 0.01
Brightness ([4]; Holo): 0.37 ± 0.01
Extinction coefficient ([4]; Holo): 65000 M⁻¹ cm⁻¹
Fluorescence quantum yield ([4]; Holo): 0.58 ± 0.01

B4: mApple A145D/E147D/K198D/R216E: mApple variant, SEQ ID NO: 28 (protein)
chain: B1 chain with A145D, E147D, K198D, R216E
Fmax/Fmin ([2]; EGFP and mApple variants): 3.23
Aholo/Aapo [2]: 1.84 (569)

B5: mApple A145E/E147D/K198D/R216E: mApple variant, SEQ ID NO: 27 (protein)
chain: B1 chain with A145E, E147D, K198D, R216E
Fmax/Fmin ([2]; EGFP and mApple variants): 4.43
Aholo/Aapo [2]: 1.66 (569)

B6: mApple A145E/K198D/R216E/E218D: mApple variant, SEQ ID NO: 29 (protein)
chain: B1 chain with A145E, K198D, R216E, E218D
Fmax/Fmin ([2]; EGFP and mApple variants): 2.64
Aholo/Aapo [2]: 1.59 (569)

B7: mApple A145D/K198D/R216E: mApple variant, SEQ ID NO: 26 (protein)
chain: B1 chain with A145D, K198D, R216E
Fmax/Fmin ([2]; EGFP and mApple variants): 3.75
Aholo/Aapo [2]: 1.57 (569)

B8: mApple K198D: mApple variant, SEQ ID NO: 23 (protein)
chain: B1 chain with K198D
Fmax/Fmin ([2]; EGFP and mApple variants): 1.17
Aholo/Aapo [2]: 1.41 (569)
pka ([3]; Apo): 6.68 ± 0.09
pka ([3]; Holo): 6.90 ± 0.12
Brightness ([4]; Apo): 0.32 ± 0.01
Extinction coefficient ([4]; Apo): 59000 M⁻¹ cm⁻¹
Fluorescence quantum yield ([4]; Apo): 0.54 ± 0.01
Brightness ([4]; Holo): 0.42 ± 0.03
Extinction coefficient ([4]; Holo): 69000 M⁻¹ cm⁻¹
Fluorescence quantum yield ([4]; Holo): 0.61 ± 0.03

B9: mCherry A145E/N196D/K198D: mCherry based indicator attempt, 4 negatively charged residues (protein)
chain: EEDNMAIIKEFMRFKVHMEGSVNGHEFEIEGEGEGRPYEGTQTAKLKVTKGGPLPFAWDILSPQFMYGSKAYVKHPADIPDYLKLSFPEGFKWERVMNFEDGGVVTVTQDSSLQDGEFIYKVKLRGTNFPSDGPVMQKKTMGWEESSERMYPEDGALKGEIKQRLKLKDGGHYDAEVKTTYKAKKPVQLPGAYNVDIDLDITSHNEDYTIVEQYERAEGRHSTGGMDELYK
Fmax/Fmin [2, 5]: 0.93 ± 0.02

B10: mCherry A145E/N196D/K198D/R216E: mCherry based indicator attempt, 5 negatively charged residues (protein)
chain: B9 chain with R216E
Fmax/Fmin [2, 5]: 1.05 ± 0.06

Source: patent publication US20240369485A1, “FLUORESCENT SENSOR FOR MONITORING CALCIUM DYNAMICS” (priority 2021, published 2024)
